{"source": "patent US10729634B2", "about": "“Sex hormone-binding globulin for use as a medicament” (FUNDACIÓ HOSPITAL UNIVERSITARI VALL D'HEBRON—INSTITUT DE …, priority 2013, dated 2020)", "molecules": {"B1": {"name": "SHBG: native human protein purified from healthy human serums (included SEQ ID NO: 1); in mice and HepG2 expressed from human shbg transgene/vector (protein, listed as Homo sapiens)", "chain": "MESRGPLATSRLLLLLLLLLLRHTRQGWALRPVLPTQSAHDPPAVHLSNGPGQEPIAVMTFDLTKITKTSSSFEVRTWDPEGVIFYGDTNPKDDWFMLGLRDGRPEIQLHNHWAQLTVGAGPRLDDGRWHQVEVKMEGDSVLLEVDGEEVLRLRQVSGPLTSKRHPIMRIALGGLLFPASNLRLPLVPALDGCLRRDSWLDKQAEISASAPTSLRSCDVESNPGIFLPPGTQAEFNLRDIPQPHAEPWAFSLDLGLKQAAGSGHLLALGTPENPSWLSLHLQDQKVVLSSGSGPGLDLPLVLGLPLQLKLSMSRVVLSQGSKMKALALPPLGLAPLLNLWAKPQGRLFLGALPGEDSSTSFCLNGLWAQGQRLDVDQALNRSHEIWTHSCPQSPGNGTDASH"}}, "test_system": "shbg-db/db transgenic mice", "experiment": "Obese diabetic db/db mice expressing human SHBG (shbg-db/db) compared with db/db", "assay_type": "in vivo", "description": "To shed light to this issue, the inventors developed a unique mouse model that expresses the human SHBG gene and develops obesity, by crossing the human SHBG transgenic mice with the db/db mice.\nThe human SHBG transgenic mice is the one disclosed by Jänne et al, “Human Sex-Hormone-Binding Globulin Gen Expression in Transgenic Mice”, Molecular Endocrinology—1998, Vol. No. 12 (1), pp: 123-136.\nBriefly, these mice were obtained by microinjecting into the pronuclei of a one-cell mouse embryos, a 4.3 kb portion of a human shbg that comprises the 8 exons of the SHBG plus 0.9 kb 5′ of the translation initiation codon in exon 1 and 0.5 kb 3′ from the polyadenylation sequence in exon 8. The one-cell embryos were obtained superovulating CBA×C57BL6 hybrid females with pregnant mare serum and hCG (Sigma Chemical Co. Mississauga, Canada) and mating them with CBA×C57BL6 males. Female CD-1 mice were used to produce pseudopregnant recipients by mating with vasectomized CD-1 males. Injected embryos were implanted into the pseudopregnant recipient mice using a standard protocol. This human transgenic mice over expresses the human shbg gene in vivo. According to Northern blot analysis, the human shbg transcripts are most abundant in liver and kidney. At the cellular level, the human shbg transgenes are expressed in clusters of hepatocytes located mainly within the periportal region of hepatic lobules and in the epithelial cells lining the proximal convoluted tubules of the kidney.\nThe db/db mice corresponds to the JAX™ Mice Strain: Diabetic Mice db/db (from Charles River; www.criver.com/en-US/Pages/home.aspx). These mice are characterized by having a point mutation in the leptin receptor. In homozygosis the lack of leptin signaling in the hypothalamus will lead to persistent hyperphagia, obesity, type 2 diabetes, dyslipidaemia and fatty liver. In this mice, diabetes (db), which occurred in an inbred strain of mouse, is inherited as a unit autosomal recessive and is characterized by a metabolic disturbance resembling diabetes mellitus in man. Abnormal deposition of fat at 3 to 4 weeks of age is followed shortly by hyperglycemia, polyuria, and glycosuria.\nFor performing the assays, mice were maintained under standard conditions with food (Global Diet 2018, Harlan Interfauna Iberica, Barcelona, Spain) and water provided ad libitum and a 12 h light/dark cycle. Experimental procedures were approved by the Institutional Animal Use Subcommittees of Hospital Vall d'Hebron Research Institute and the Universitat Autònoma Barcelona.\nThe mice for experiments in next illustrated assays were of the following four genotypes: • db/+, which means lean mice heterozygous at point mutation in the leptin receptor. • db/db, which means that the mice were homozygous for the point mutation in the leptin receptor and behave a phenotype of persistent hyperphagia, obesity, type 2 diabetes, dyslipidaemia and fatty liver, • shbg-db/+ lean mice heterozygous at point mutation in the leptin receptor and expressing the shbggene • shbg-db/db, which means that the they over-expressed shbg gene in the manner disclosed above and at the same time they had the phenotype of the homozygous db/db mice in relation to hyperphagia, obesity, type 2 diabetes, dyslipidaemia and fatty liver.\nHistology and Immunohistochemistry: For morphological studies, 3 animals of each genotype (db/+, db/db, shbg4-db/+ and shbg4-db/db) were used. Livers and adipose tissue were fixed in 4% paraformaldehyde for 24 h and embedded in paraffin. Serial 5-μm thick sections were used for histological examination and stained with hematoxylin-eosin (H&E).\nFor immunohistochemistry studies, the paraffin sections were de-waxed and incubated at high power in a microwave oven for 10 min in citrate buffer, pH 6.6. The sections were then cooled at room temperature for 20 min and treated with a 0.03% hydrogen peroxide solution for 7 min, prior to incubation (overnight at 4° C.) with rabbit antibodies against F4/80. […]", "key": {"[1]": {"conditions": "adipose tissue, shbg-db/db vs db/db mice"}, "[2]": {"conditions": "shbg-db/db vs db/db mice, 4 to 12 weeks of age"}, "[3]": {"conditions": "shbg-db/db vs db/db mice, relative to 18S mRNA"}, "[4]": {"conditions": "shbg-db/db vs db/db mice, sacrificed at 6 weeks"}, "[5]": {"conditions": "shbg-db/db vs db/db mice, western blot"}}}
{"molecule": "B1", "values": [{"measurement": "Adiponectin mRNA levels", "setting": "[1]", "result": "increased significantly"}, {"measurement": "IL6 mRNA levels", "setting": "[1]", "result": "reduced in shbg-db/db mice when compared with db/db mice but it was not statistically significant"}, {"measurement": "IL-1β mRNA levels", "setting": "[1]", "result": "significantly reduced"}, {"measurement": "TNF-α mRNA levels", "setting": "[1]", "result": "significantly reduced"}, {"measurement": "Triglyceride amounts in liver", "setting": "genotype shbg-db/+ (lean mice expressing human SHBG), db/+ control 74.99 ± 4.17", "result": "88.88 ± 12.84", "unit": "Nmol TGs/tissue g"}, {"measurement": "Triglyceride amounts in liver", "setting": "genotype shbg-db/db (obese mice expressing human SHBG), db/db control 421.92 ± 58.6", "result": "314.64 ± 41.37", "unit": "Nmol TGs/tissue g"}, {"measurement": "macrophage infiltration (F4/80 immunohistochemistry)", "setting": "liver and adipose tissue, shbg-db/db vs db/db mice", "result": "less macrophage infiltration in both liver and adipose tissue"}, {"measurement": "hepatic lipogenesis", "setting": "shbg-db/db vs db/db mice", "result": "Reducing Hepatic Lipogenesis"}, {"measurement": "inflammation", "setting": "shbg-db/db vs db/db mice", "result": "Lowers Inflammation"}, {"measurement": "blood glucose levels", "setting": "[2]", "result": "not Blood Glucose Levels"}, {"measurement": "weight gain (body weight)", "setting": "[2]", "result": "Reduces Weight Gain"}, {"measurement": "hepatic steatosis", "setting": "shbg-db/db vs db/db mice, liver histology", "result": "Reduces"}, {"measurement": "liver ACC mRNA levels", "setting": "[3]", "result": "significantly lower"}, {"measurement": "liver FAS mRNA levels", "setting": "[3]", "result": "significantly lower"}, {"measurement": "adipocyte size", "setting": "[4]", "result": "Reduces"}, {"measurement": "adipose tissue weight (VAT)", "setting": "[4]", "result": "Reduces Adipose Tissue Weight"}, {"measurement": "liver weight", "setting": "[4]", "result": "Reduces Liver Weight"}, {"measurement": "liver ACC protein levels", "setting": "[5]", "result": "reduced ACC protein levels"}, {"measurement": "liver FAS protein levels", "setting": "[5]", "result": "significantly lower FAS protein levels"}]}
